The source of these data is publication PMC4497409 (2015).

Usually Kd stands for the concentration at which binding is half-saturated. Read a low Kd as tighter binding.

For this test, the target named is Biotinylated human Norrin K58N (disease-associated mutation) (human, UniProt Q00604 25-133, K58N, biotin on the C-terminal BirA recognition sequence (in vivo biotinylation)). Description: SPR. (In general: Surface plasmon resonance follows binding to a sensor surface in real time, without labels.)
Chain of Biotinylated human Norrin K58N (disease-associated mutation) (Q00604 25-133 K58N): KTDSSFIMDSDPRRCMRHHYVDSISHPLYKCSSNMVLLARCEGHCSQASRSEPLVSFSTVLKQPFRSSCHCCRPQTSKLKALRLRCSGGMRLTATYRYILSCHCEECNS

B1: Frizzled4 cysteine-rich domain (Fz4CRD), human (domain or fragment)
chain: ERRCDPIRISMCQNLGYNVTKMPNLVGHELQTDAELQLTTFTPLIQYGCSSQLQFFLCSVYVPMCTEKINIPIGPCGGMCLSVKRRCEPVLKEFGFAWPESLNCSKFPPQNDHNHMCMEGPGDEEVPLPHKTPIQPGE
modifications: N-linked glycans at Asn59 and Asn144 (full, or cut to N-acetylglucosamine by Endo-F1)
B1 had a Kd of 1240 nM.
